Numbering of substitutions follows the chain as printed.

The labels stand for the following.
B1: Sec13/31p complex (complex, S. cerevisiae)
chain 1: MVVIANAHNELIHDAVLDYYGKRLATCSSDKTIKIFEVEGETHKLIDTLTGHEGPVWRVDWAHPKFGTILASCSYDGKVLIWKEENGRWSQIAVHAVHSASVNSVQWAPHEYGPLLLVASSDGKVSVVEFKENGTTSPIIIDAHAIGVNSASWAPATIEEDGEHNGTKESRKFVTGGADNLVKIWKYNSDAQTYVLESTLEGHSDWVRDVAWSPTVLLRSYLASVSQDRTCIIWTQDNEQGPWKKTLLKEEKFPDVLWRASWSLSGNVLALSGGDNKVTLWKENLEGKWEPAGEVHQ
chain 2: MVKLAEFSRTATFAWSHDKIPLLVSGTVSGTVDANFSTDSSLELWSLLAADSEKPIASLQVDSKFNDLDWSHNNKIIAGALDNGSLELYSTNEANNAINSMARFSNHSSSVKTVKFNAKQDNVLASGGNNGEIFIWDMNKCTESPSNYTPLTPGQSMSSVDEVISLAWNQSLAHVFASAGSSNFASIWDLKAKKEVIHLSYTSPNSGIKQQLSVVEWHPKNSTRVATATGSDNDPSILIWDLRNANTPLQTLNQGHQKGILSLDWCHQDEHLLLSSGRDNTVLLWNPESAEQLSQFPARGNWCFKTKFAPEAPDLFACASFDNKIEVQTLQNLTNTLDEQETETKQQESETDFWNNVSREESKEKPTVFHLQAPTWYGEPSPAAHWAFGGKLVQITPDGKGVSITNPKISGLESNTTLSEALKTKDFKPLINQRLVKVIDDVNEEDWNLLEKLSMDGTEEFLKEALAFDNDESDAQDDANNEKEDDGEEFFQQIETNFQPEGDFSLSGNIEQTISKNLVSGNIKSAVKNSLENDLLMEAMVIALDSNNERLKESVKNAYFAKYGSKSSLSRILYSISKREVDDLVENLDVSQWKFISKAIQNLYPNDIAQRNEMLIKLGDRLKENGHRQDSLTLYLAAGSLDKVASIWLSEFPDLEDKLKKDNKTIYEAHSECLTEFIERFTVFSNFINGSSTINNEQLIAKFLEFINLTTSTGNFELATEFLNSLPSDNEEVKTEKARVLIASGKSLPAQNPATATTSKAKYTNAKTNKNVPVLPTPGMPSTTSIPSMQAPFYGMTPGASANALPPKPYVPATTTSAPVHTEGKYAPPSQPSMASPFVNKTNSSTRLNSFAPPPNPYATATVPATNVSTTSIPQNTFAPIQPGMPIMGDYNAQSSSIPSQPPINAVSGQTPHLNRKANDGWNDLPLKVKEKPSRAKAVSVAPPNILSTPTPLNGIPANAASTMPPPPLSRAPSSVSMVSPPPLHKNSRVPSLVATSESPRASISNPYAPPQSSQQFPIGTISTANQTSNTAQVASSNPYAPPPQQRVATPLSGGVPPAPLPKASNPYAPTATTQPNGSSYPPTGPYTNNHTMTSPPPVFNKPPTGPPPISMKKRSNKLASIEQNPSQGATYPPTLSSSASPLQPSQPPTLASQVNTSAENVSHEIPADQQPIVDFLKEELARVTPLTPKEYSKQLKDCDKRLKILFYHLEKQDLLTQPTIDCLHDLVALMKEKKYKEAMVIHANIATNHAQEGGNWLTGVKRLIGIAEATLN
notes: Sec13p, COPII outer coat subunit, S. cerevisiae; Sec31p, COPII outer coat subunit, S. cerevisiae; also called outer COPII coat; source: purified
B2: MBP-Sec31(879–1114) (domain or fragment, S. cerevisiae, UniProt P38968 879-1114, looked up)
chain: APIQPGMPIMGDYNAQSSSIPSQPPINAVSGQTPHLNRKANDGWNDLPLKVKEKPSRAKAVSVAPPNILSTPTPLNGIPANAASTMPPPPLSRAPSSVSMVSPPPLHKNSRVPSLVATSESPRASISNPYAPPQSSQQFPIGTISTANQTSNTAQVASSNPYAPPPQQRVATPLSGGVPPAPLPKASNPYAPTATTQPNGSSYPPTGPYTNNHTMTSPPPVFNKPPTGPPPISMKK
notes: also called proline-rich region of Sec31p; pMY12; source: E. coli C41(DE3), purified (amylose resin, eluted with 30 mM maltose)
B3: GST-Pef1p (natural protein, S. cerevisiae, UniProt P53238 1-335, looked up)
chain: MCAKKLKYAAGDDFVRYATPKEAMEETRREFEKEKQRQQQIKVTQAQTPNTRVHSAPIPLQTQYNKNRAENGHHSYGSPQSYSPRHTKTPVDPRYNVIAQKPAGRPIPPAPTHYNNLNTSAQRIASSPPPLIHNQAVPAQLLKKVAPASFDSREDVRDMQVATQLFHNHDVKGKNRLTAEELQNLLQNDDNSHFCISSVDALINLFGASRFGTVNQAEFIALYKRVKSWRKVYVDNDINGSLTISVSEFHNSLQELGYLIPFEVSEKTFDQYAEFINRNGTGKELKFDKFVEALVWLMRLTKLFRKFDTNQEGIATIQYKDFIDATLYLGRFLPH
notes: No removal of GST is described; also called N-terminally GST-fused Pef1p; pMY3; source: E. coli JM109, purified (glutathione-Sepharose, eluted with 10 mM glutathione); not shown: GST, N-terminal, kept
B4: GST-Pef1p-E180/181/248A (natural protein, S. cerevisiae, UniProt P53238 1-335, looked up)
chain: B3 chain with E180A, E181A, E248A
notes: also called pMY14; source: E. coli JM109, purified (glutathione-Sepharose, eluted with 10 mM glutathione); not shown: GST, N-terminal, kept

Holding throughout (details): both partners purified
For one assay, the target named is T1, Sec23/24p complex (S. cerevisiae, UniProt P15303 1-768; P40482 1-926).
T1 construct: Sec23p, COPII inner coat subunit, GAP for Sar1p, S. cerevisiae; Sec24p, COPII inner coat subunit, S. cerevisiae; also called inner COPII coat
The experiment in a line: light scattering of liposomes; liposomes (100 µg/mL) preloaded with Sar1p (950 nM) and GMP-PNP (0.1 mM); Sec23/24p (160 nM), then Sec13/31p (260 nM) added; 350 nm, 25°C, 20 mM HEPES-KOH pH 6.8, 160 mM potassium acetate, 1 mM MgCl2; 5 mM EGTA in panel A, none in panel B; with or without GST-Pef1p or its mutant (520 nM).

The target in the assay “GST-Pef1p” is B3. The experiment in a line: pull-down; GST-Pef1p or GST (40 nM) and MBP-Sec31p fragment (80 nM), glutathione-Sepharose beads, 4°C 2 h, 20 mM HEPES-KOH pH 8.0, 160 mM potassium acetate, 0.1% Triton X-100; CaCl2 or EGTA not told for this experiment; immunoblot with anti-MBP.
The assay “Sec13/31p complex” deals with B1. The assay can be described thus: pull-down; GST fusion or GST (40 nM) and Sec13/31p (80 nM) with 5 mM EGTA, glutathione-Sepharose beads, 4°C 2 h, 20 mM HEPES-KOH pH 8.0, 160 mM potassium acetate, 0.1% Triton X-100; immunoblot with anti-Sec31p. Background: In western blotting, separated proteins are transferred to a membrane and probed.

T1 sequence (P15303 whole entry, chain 1 of 2): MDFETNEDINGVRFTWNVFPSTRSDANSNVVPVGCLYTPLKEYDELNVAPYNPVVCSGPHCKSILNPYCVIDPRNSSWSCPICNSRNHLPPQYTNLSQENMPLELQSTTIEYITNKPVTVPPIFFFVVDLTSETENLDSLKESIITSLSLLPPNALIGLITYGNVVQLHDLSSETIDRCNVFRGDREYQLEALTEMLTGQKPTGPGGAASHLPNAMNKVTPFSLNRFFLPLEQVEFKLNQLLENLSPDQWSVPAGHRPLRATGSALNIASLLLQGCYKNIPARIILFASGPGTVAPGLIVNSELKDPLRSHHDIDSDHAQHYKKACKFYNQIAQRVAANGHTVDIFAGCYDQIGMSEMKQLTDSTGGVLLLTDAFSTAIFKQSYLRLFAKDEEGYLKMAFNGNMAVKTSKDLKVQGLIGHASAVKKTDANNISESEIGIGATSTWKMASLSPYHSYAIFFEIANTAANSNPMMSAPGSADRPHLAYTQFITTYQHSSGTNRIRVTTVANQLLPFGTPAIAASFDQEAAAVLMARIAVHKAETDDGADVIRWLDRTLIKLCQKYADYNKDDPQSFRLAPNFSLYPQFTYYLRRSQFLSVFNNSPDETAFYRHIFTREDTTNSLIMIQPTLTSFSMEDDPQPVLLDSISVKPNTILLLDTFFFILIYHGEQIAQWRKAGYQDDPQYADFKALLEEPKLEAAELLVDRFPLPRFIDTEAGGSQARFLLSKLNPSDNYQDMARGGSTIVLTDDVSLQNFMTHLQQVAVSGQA
T1 sequence (P40482 whole entry, chain 2 of 2): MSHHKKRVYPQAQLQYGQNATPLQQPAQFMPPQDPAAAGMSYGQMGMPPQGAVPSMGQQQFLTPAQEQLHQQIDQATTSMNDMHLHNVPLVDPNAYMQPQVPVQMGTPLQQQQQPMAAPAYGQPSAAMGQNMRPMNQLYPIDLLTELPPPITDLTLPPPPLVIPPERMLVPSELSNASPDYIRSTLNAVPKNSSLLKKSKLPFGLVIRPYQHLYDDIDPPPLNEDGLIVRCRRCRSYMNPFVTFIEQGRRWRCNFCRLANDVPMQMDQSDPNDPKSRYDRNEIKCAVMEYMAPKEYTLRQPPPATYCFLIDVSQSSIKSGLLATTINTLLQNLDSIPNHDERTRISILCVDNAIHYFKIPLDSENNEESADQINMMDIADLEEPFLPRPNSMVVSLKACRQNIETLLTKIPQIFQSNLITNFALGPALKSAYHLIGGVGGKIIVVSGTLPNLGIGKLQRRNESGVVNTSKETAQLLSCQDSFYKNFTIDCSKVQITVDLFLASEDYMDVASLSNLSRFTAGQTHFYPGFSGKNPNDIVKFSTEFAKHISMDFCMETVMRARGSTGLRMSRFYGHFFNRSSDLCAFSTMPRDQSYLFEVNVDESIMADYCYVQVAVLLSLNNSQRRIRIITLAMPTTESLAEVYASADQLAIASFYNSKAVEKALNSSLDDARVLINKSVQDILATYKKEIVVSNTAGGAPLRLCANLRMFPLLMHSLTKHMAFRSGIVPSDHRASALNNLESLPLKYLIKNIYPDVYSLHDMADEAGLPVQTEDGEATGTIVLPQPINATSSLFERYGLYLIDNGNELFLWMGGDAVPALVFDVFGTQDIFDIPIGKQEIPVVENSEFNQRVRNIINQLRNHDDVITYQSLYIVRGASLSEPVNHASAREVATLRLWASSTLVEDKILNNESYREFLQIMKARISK

In the case of B1, the binding result with Sec23/24p complex is “binds”. On to B2, for which the binding result with GST-Pef1p is “binds”. As to B3, the binding result in the assay with Sec13/31p complex was “binds”. B4: in the assay with Sec13/31p complex, the binding result was “binds”.

These data come from paper PMC3394733, “Involvement of the Penta-EF-Hand Protein Pef1p in the Ca^2+-Dependent Regulation of COPII Subunit Assembly in Saccharomyces cerevisiae” (PLoS ONE, 2012).
